Measurements taken from patent US20230212319A1, “NOVEL ANTIGEN BINDING DOMAINS AND SYNTHETIC ANTIGEN RECEPTORS INCORPORATING THE SAME” (University of Southern California, priority 2020, published 2023).

B1: 22238 (protein)
chain: MALPVTALLLPLALLLHAARPDIQMTQSPSSLSASVGDRVTITCKASDHINNWLAWYQQKPGQAPKLLIYGATTLETGVPSRFSGSGSGTDYTLTISSLQPEDFATYYCQQSWNTPWTFGQGTKLEIKRLEDLKNVFPPEVAVFEPSEAEISHTQKATLVCLATGFYPDHVELSWWVNGKEVHSGVCTDPQPLKEQPALNDSRYCLSSRLRVSATFWQNPRNHFRCQVQFYGLSENDEWTQDRAKPVTQIVSAEAWGRADCGFTSESYQQGVLSATILYEILLGKATLYAVLVSALVLMAMVKRKDSRGRAKRSGSGATNFSLLKQAGDVEENPGPTSATMDWIWRILFLVGAATGAHSQLGPYELWELSHGSGSGSGSQLGPYELWELSHSGGGSGQLGPYELWELSHGSSGPEVQLVESGGGLVQAGGSLRLSCAASGRTFSMGWFRQAPGKEREFVAAITYSGGSPYYADSVKGRFTISRDNAKNTVYLQMNSLKPEDTAVYYCAANPTYGSDWNAENWGQGTQVTVSSGSGGGGSGGGGSGGGGSFEQVQLQQPGAELVKPGASVKMSCKASGYAFSSYWINWMKQKPGQGLEWIGQIYPGDGDTNYNGKFKGRATLTADTSSSTAYMQLSSLTSEDSAVYFCARSITTVVGCAMDYWGQGTSVTVSSTRIQNPDPAVYQLRDSKSSDKSVCLFTDFDSQTNVSQSKDSDVYITDKCVLDMRSMDFKSNSAVAWSNKSDFACANAFNNSIIPEDTFFPSPESSCDVKLVEKSFETDTNLNFQNLSVIGFRILLLKVAGFNLLMTLRLWSSRAKRSGSGVKQTLNFDLLKLAGDVESNPGPSRGHMTEYKPTVRLATRDDVPRAVRTLAAAFADYPATRHTVDPDRHIERVTELQELFLTRVGLDIGKVWVADDGAAVAVWTTPESVEAGAVFAEIGPRMAELSGSRLAAQQQMEGLLAPHRPKEPAWFLATVGVSPDHQGKGLGSAVVLPGVEAAERAGVPAFLETSAPRNLPFYERLGFTVTADVEVPEGPRTWCMTRKPGA
B2: 22239 (protein)
chain: MALPVTALLLPLALLLHAARPACPYINIYNAEPANPSEKNSPTQYAYGTGGGGSGGGGSGGGGSEFDIQMTQSPSSLSASVGDRVTITCKASDHINNWLAWYQQKPGQAPKLLIYGATTLETGVPSRFSGSGSGTDYTLTISSLQPEDFATYYCQQSWNTPWTFGQGTKLEIKRLEDLKNVFPPEVAVFEPSEAEISHTQKATLVCLATGFYPDHVELSWWVNGKEVHSGVCTDPQPLKEQPALNDSRYCLSSRLRVSATFWQNPRNHFRCQVQFYGLSENDEWTQDRAKPVTQIVSAEAWGRADCGFTSESYQQGVLSATILYEILLGKATLYAVLVSALVLMAMVKRKDSRGRAKRSGSGATNFSLLKQAGDVEENPGPTSATMDWIWRILFLVGAATGAHSGPQLGPYELWELSHGSGGGGSGGGGSGGGGSFEQVQLQQPGAELVKPGASVKMSCKASGYAFSSYWINWMKQKPGQGLEWIGQIYPGDGDTNYNGKFKGRATLTADTSSSTAYMQLSSLTSEDSAVYFCARSITTVVGCAMDYWGQGTSVTVSSTRIQNPDPAVYQLRDSKSSDKSVCLFTDFDSQTNVSQSKDSDVYITDKCVLDMRSMDFKSNSAVAWSNKSDFACANAFNNSIIPEDTFFPSPESSCDVKLVEKSFETDTNLNFQNLSVIGFRILLLKVAGFNLLMTLRLWSSRAKRSGSGVKQTLNFDLLKLAGDVESNPGPSRGHMTEYKPTVRLATRDDVPRAVRTLAAAFADYPATRHTVDPDRHIERVTELQELFLTRVGLDIGKVWVADDGAAVAVWTTPESVEAGAVFAEIGPRMAELSGSRLAAQQQMEGLLAPHRPKEPAWFLATVGVSPDHQGKGLGSAVVLPGVEAAERAGVPAFLETSAPRNLPFYERLGFTVTADVEVPEGPRTWCMTRKPGA
B3: 22240 (protein)
chain: MALPVTALLLPLALLLHAARPDIQMTQSPSSLSASVGDRVTITCKASDHINNWLAWYQQKPGQAPKLLIYGATTLETGVPSRFSGSGSGTDYTLTISSLQPEDFATYYCQQSWNTPWTFGQGTKLEIKRLEDLKNVFPPEVAVFEPSEAEISHTQKATLVCLATGFYPDHVELSWWVNGKEVHSGVCTDPQPLKEQPALNDSRYCLSSRLRVSATFWQNPRNHFRCQVQFYGLSENDEWTQDRAKPVTQIVSAEAWGRADCGFTSESYQQGVLSATILYEILLGKATLYAVLVSALVLMAMVKRKDSRGRAKRSGSGATNFSLLKQAGDVEENPGPTSATMDWIWRILFLVGAATGAHSGPYINIYNAEPANPSEKNSPSTQYAYGGGSQLGPYELWELSHGSGGSGGGGSGGGGSGGGGSFEQVQLQQPGAELVKPGASVKMSCKASGYAFSSYWINWMKQKPGQGLEWIGQIYPGDGDTNYNGKFKGRATLTADTSSSTAYMQLSSLTSEDSAVYFCARSITTVVGCAMDYWGQGTSVTVSSTRIQNPDPAVYQLRDSKSSDKSVCLFTDFDSQTNVSQSKDSDVYITDKCVLDMRSMDFKSNSAVAWSNKSDFACANAFNNSIIPEDTFFPSPESSCDVKLVEKSFETDTNLNFQNLSVIGFRILLLKVAGFNLLMTLRLWSSRAKRSGSGVKQTLNFDLLKLAGDVESNPGPSRGHMTEYKPTVRLATRDDVPRAVRTLAAAFADYPATRHTVDPDRHIERVTELQELFLTRVGLDIGKVWVADDGAAVAVWTTPESVEAGAVFAEIGPRMAELSGSRLAAQQQMEGLLAPHRPKEPAWFLATVGVSPDHQGKGLGSAVVLPGVEAAERAGVPAFLETSAPRNLPFYERLGFTVTADVEVPEGPRTWCMTRKPGA
B4: 22241 (protein)
chain: MALPVTALLLPLALLLHAARPDIQMTQSPSSLSASVGDRVTITCKASDHINNWLAWYQQKPGQAPKLLIYGATTLETGVPSRFSGSGSGTDYTLTISSLQPEDFATYYCQQSWNTPWTFGQGTKLEIKRLEDLKNVFPPEVAVFEPSEAEISHTQKATLVCLATGFYPDHVELSWWVNGKEVHSGVCTDPQPLKEQPALNDSRYCLSSRLRVSATFWQNPRNHFRCQVQFYGLSENDEWTQDRAKPVTQIVSAEAWGRADCGFTSESYQQGVLSATILYEILLGKATLYAVLVSALVLMAMVKRKDSRGRAKRSGSGATNFSLLKQAGDVEENPGPTSATMDWIWRILFLVGAATGAHSYINIYNAEPANPSEKNSPSTQYAYGSGSSYINIYNAEPANPSEKNSPSTQYAYGSGGSYINIYNAEPANPSEKNSPSTQYAYGSGSSSYINIYNAEPANPSEKNSPSTQYAYGSGSGSYINIYNAEPANPSEKNSPSTQYAYGPSGSGGGGSGGGGSGGGGSFEQVQLQQPGAELVKPGASVKMSCKASGYAFSSYWINWMKQKPGQGLEWIGQIYPGDGDTNYNGKFKGRATLTADTSSSTAYMQLSSLTSEDSAVYFCARSITTVVGCAMDYWGQGTSVTVSSTRIQNPDPAVYQLRDSKSSDKSVCLFTDFDSQTNVSQSKDSDVYITDKCVLDMRSMDFKSNSAVAWSNKSDFACANAFNNSIIPEDTFFPSPESSCDVKLVEKSFETDTNLNFQNLSVIGFRILLLKVAGFNLLMTLRLWSSRAKRSGSGVKQTLNFDLLKLAGDVESNPGPSRGHMTEYKPTVRLATRDDVPRAVRTLAAAFADYPATRHTVDPDRHIERVTELQELFLTRVGLDIGKVWVADDGAAVAVWTTPESVEAGAVFAEIGPRMAELSGSRLAAQQQMEGLLAPHRPKEPAWFLATVGVSPDHQGKGLGSAVVLPGVEAAERAGVPAFLETSAPRNLPFYERLGFTVTADVEVPEGPRTWCMTRKPGA

Tested on: RAJI cells
Assay: JNG assay, co-culture with RAJI cells
Format: cell-based
Details: JNG cells expressing construct, co-culture with Raji
Summary of the method: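 Jurkat-NFAT-GFP (JNG) cells stably expressing SAR constructs via lentiviral transduction and puromycin/blasticidin selection were cocultured with target cells at E:T ~1:2 for ~4–18 h. NFAT-driven GFP was measured by FACS versus parental JNG cells; scores +/- to 5+ denote ~5–50% GFP-positive cells.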

| Molecule | NFAT-GFP ASSAY: Raji |
| --- | --- |
| B1 | Raji (+) (refer to approximately 5%, 10%, 20%, 30%, 40% and 50% GFP positive cells) |
| B2 | Raji (+) (refer to approximately 5%, 10%, 20%, 30%, 40% and 50% GFP positive cells) |
| B3 | Raji (3+) (refer to approximately 5%, 10%, 20%, 30%, 40% and 50% GFP positive cells) |
| B4 | Raji (4+) (refer to approximately 5%, 10%, 20%, 30%, 40% and 50% GFP positive cells) |
